“Also recorded” adds a separate entry of the source. Each block holds one molecule with its values, some of them ahead of it. Where a SMILES comes first, the peptide text is derived from it. The star is where a group is joined. Cbz = O=C(OCc1ccccc1)*; CH2F = FC*
Columns and labels:
[1] = system: clonally-derived CD1 neurospheres; assay: Neurite extensions / morphology of differentiating neurospheres; assay type: cell-based, mouse; conditions: differentiation media up to 5 d, 2.0 μM inhibitor, vs DMSO
Experimental: Neurospheres were sub-cultured no more than once per collection. The differentiation of neurospheres was initated by plating spheres on poly-L-ornithine coated plates in NeuroCult Differentiation Medium in the absence of bFGF, as per manufacturer's instructions. […] All cultures received fresh media and inhibitor every 24 h for the duration of the experiment. Neurospheres from caspase 3 null embryos (Fernando, P., et al., (2002) Proc Natl Acad Sci USA 99, 11025-11030) were cultured as described above.
Immunocytochemistry: Neurospheres were collected at selected time points, fixed in 4% paraformaldehyde and prepared for immunostaining as previously described (Fernando, P., et al., (2002) Proc Natl Acad Sci USA 99, 11025-11030)). The primary antibody concentrations for anti-nestin, -GFAP, -MBP and -active caspase 3 (BioVision, USA) were titrated on wildtype CD1 neurospheres prior to their experimental use. These antibodies were visualized by counterstaining with either FITC or Cy3 conjugated secondary antibodies (Chemicon USA). Nuclei were localized with 4′,6-Diamidino-2 phenylindole (DAPI) (Sigma, USA). Cells were visualized using either an Axiovert 100 for transmission microscopy or Axioplan 2 for fluorescent microscopy (Zeiss, Germany) at selected magnifications. Captured images were processed using AxioVision Viewer 3.0 software.
Quantitation of Neurite Extensions: Neurites from differentiating neurospheres were estimated from a total of 6-8 neurospheres per condition over three independent experiments. To quantitated neuritis, the average diameter of an individual neurosphere was estimated from the vertical and horizontal distance. The number of extensions leaving the neurosphere body were then counted and an ratio of neurosphere extensions:average neurosphere diameter was calculated for each. All measurements including neurosphere diameter were evaluated using Scion Image.

[2] = system: C2C12 myoblasts; assay: C2C12 myoblast differentiation in low serum media with caspase inhibitors (MF20 staining, immunoblot of myogenic markers); assay type: cell-based, mouse; conditions: 20 μM inhibitor
Experimental: (§1) Myoblast culture. C2C12 cell (mouse skeletal muscle myoblast) cultures were grown and maintained in DMEM containing 10% FBS with 50 units/ml penicillin and 50 μg/ml streptomycin (Gibco). Differentiation was induced by incubating cultures in DMEM containing only a low serum concentration (2% horse serum). Caspase activity was measured using a Caspase-3 and Caspase-8 Fluorometric Assay Kit (Pharmingen). […] Control cells were treated with an equivalent amount of vehicle (DMSO). Primary myoblast cells were derived from skeletal muscles of the hind- and fore-limbs from 1-2 day old C57BL/6 wild-type, caspase-3 heterozygous and caspase-3 null mice (Frasch, S. C., et al., (1998) J. Biol. Chem. 273, 8389-8397; Kuida, K., et al., (1996) Nature 384, 368-372) (n=5 for each genotype) as described (Cregan, S. P. et al., (1999) J. Neuro. 19, 7860-7869.). To induce differentiation, primary myoblast cultures were incubated in DMEM containing 5% horse serum.
Protein isolation, immunoblot analyses and immunocytochemistry. Cells from C2C12 and primary myoblast cultures were washed with ice-cold PBS and lysed on ice for 45 minutes in modified-RIPA buffer containing 20 mM NaF, 5 mM Na3VO4 and 10 μg/ml each of aprotinin, leupeptin, pepstatin and PMSF. Total protein was measured using the BCA protein assay (Pierce). Immunoblot analyses were performed as described (Creasy, C. L., & Chernoff, J. (1995) J. Biol. Chem. 270, 21695-21700) using antibodies for MST1, MKK6, p38γ, and p38α (Upstate), p38 and MEF2C (Cell Signaling Technologies), myogenin F5D and myosin heavy chain MF20 mAb (Developmental Hybridoma Bank), and active caspase-3 (Biovision).
C2C12 myoblasts were fixed and stained with anti-MF20 as previously described (Cregan, et al., (1999) J. Neuro. 19, 7860-7869). Primary myoblast cultures were fixed in 4% paraformaldehyde, rinsed three times in PBS containing 0.01% Triton X-100 and stained as above. For both C2C12 and primary myoblast cultures, nuclei were detected by incubating cells for 10 min with 4,6-diamidino-2-phenylindole diluted 1:10000 in PBS.
Cells were fixed after 0, 2 and 4 days of differentiation and stained with the myosin heavy chain antibody MF20. […] In contrast, differentiation was more evident in cells that were incubated with caspase-8 inhibitor, z-LETD.fmk (FIG. 2B bottom panel, C).

[3] = system: wildtype primary myoblasts; assay: Transfection of MST1-act into wildtype primary myoblasts; assay type: cell-based, mouse
Experimental: as §1
Transfection Assays. The complete open reading frame of the human MST1, [Genbank Accession No. gi|1117790] obtained from a clone bank collection (Stratagene) was inserted into the expression vector pcDNA3.1 Myc/His (Invitrogen). A constitutively active MST1 (MST1-act) was prepared as previously described (Megeney, L. A., et al., (1996) Genes Dev 10, 1173-1183). The integrity of both MST1 and MST1-act were confirmed by sequencing. […]

[4] = system: Histone H1; assay: Histone H1 targeted kinase assay of MST1 constructs immunoprecipitated from transfected COS1 cells; assay type: biochemical; conditions: transiently transfected COS1 cells, Histone H1 substrate
Experimental: (§2) Transfection Assays. The complete open reading frame of the human MST1, [Genbank Accession No. gi|1117790] obtained from a clone bank collection (Stratagene) was inserted into the expression vector pcDNA3.1 Myc/His (Invitrogen). A constitutively active MST1 (MST1-act) was prepared as previously described (Megeney, L. A., et al., (1996) Genes Dev 10, 1173-1183). The integrity of both MST1 and MST1-act were confirmed by sequencing. The kinase activity of these protein products were verified by transient transfection into COS1 cells followed by immunoprecipitation and kinase analysis using Histone-H1 as the target substrate (see below). Transfections with MST1 and MST1-act into both COS1 and primary myoblasts were performed using Lipofectamine Plus (Gibco) as directed in the manufacturer's instructions.
Co-immunoprecipitation and kinase analyses. Immunoprecipitation was performed using 150-200 μg of total protein, incubated in modified-RIPA buffer at 4° C. for 16 h containing the respective antibody. Samples were mixed for 1 h with 25 μl of a 50% Protein G (Pharmacia). For co-immunoprecipitation, immunoprecipitates were washed in modified-RIPA buffer, boiled in 1× Lamelli buffer, separated by SDS-PAGE and Western blotted for immunoblot analyses. […] Following SDS-PAGE, gels were dried and phospho-incorporation was analyzed by autoradiography. […]

[5] = system: caspase-3-/- primary myoblasts; assay: Transfection of MST1 constructs into caspase-3-/- primary myoblasts (rescue of myogenesis); assay type: cell-based, mouse; conditions: for myotube formation in caspase-3-/- myoblasts: transient transfection, primary caspase-3-/- myoblasts
Experimental: as §1, §2
To delineate the effect of MST1 on myogenesis, wild-type MST1, an activated MST1 (aa 1-330, MST1-act) or plasmid alone was transiently transfected into primary myoblasts derived from caspase-3^−/− mice. The activity of these constructs was verified by Histone H1 targeted kinase analysis of MST1 from transiently transfected COS1 cells (FIG. 5A).

[6] = target: T1, human MST1 (Mammalian Sterile Twenty-like kinase), full length, in vitro translated from MST1-pcDNA3.1 Myc/His
T1 chain: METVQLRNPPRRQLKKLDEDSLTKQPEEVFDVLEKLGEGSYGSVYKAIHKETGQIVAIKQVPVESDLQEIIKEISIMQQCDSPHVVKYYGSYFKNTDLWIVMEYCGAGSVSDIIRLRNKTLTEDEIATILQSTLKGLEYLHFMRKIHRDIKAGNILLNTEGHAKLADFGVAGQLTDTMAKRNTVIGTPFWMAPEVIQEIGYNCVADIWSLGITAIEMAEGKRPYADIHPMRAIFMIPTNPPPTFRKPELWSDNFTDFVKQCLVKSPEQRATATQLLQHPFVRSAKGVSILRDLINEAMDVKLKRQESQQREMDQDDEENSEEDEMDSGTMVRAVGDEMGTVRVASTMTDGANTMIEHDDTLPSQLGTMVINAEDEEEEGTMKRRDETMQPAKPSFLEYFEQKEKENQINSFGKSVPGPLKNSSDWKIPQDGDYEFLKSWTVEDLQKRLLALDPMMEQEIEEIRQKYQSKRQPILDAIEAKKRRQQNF

[7] = system: C2C12 myoblasts; assay: Transfection of recombinant active caspase-3 protein into subconfluent C2C12 myoblasts in growth media; assay type: cell-based, mouse
Experimental: To further test a cell-autonomous role of caspase-3 in inducing myoblast differentiation, active caspase-3 protein was transfected into a subconfluent population of C2C12 myoblasts maintained in growth media. Sub-confluent C2C12 myoblasts were transfected with […] of recombinant active caspase-3 and examined after 12 h for the presence of myosin heavy chain (anti-MF20) detected using a FITC conjugated secondary antibody. A confluent population of cells were incubated in low serum media (differentiation media) to induce myoblast differentiation and examined after 12 h. In all cells examined, nuclei were localised with DAPI staining. The results are shown in FIG. 3, which is representative of 7 trials.

- myotube formation ([2]; C2C12, low serum media, MF20 staining, up to 4 days, vs DMSO): minor attenuation of myotube formation
Molecule: COC(=O)CC[C@H](NC(=O)[C@H](CC(C)C)NC(=O)OCc1ccccc1)C(=O)N[C@H](C(=O)N[C@@H](CC(=O)OC)C(=O)CF)[C@@H](C)O [z-LETD.fmk] (Cbz-LE(OMe)TD(OMe)-CH2F)
- degree of differentiation ([2]; C2C12, low serum, vs vehicle treated cells): remained below that observed in vehicle treated cells

- efficiency of differentiation ([5]; caspase-3 knockout myoblasts containing construct): > 85%
B1: MST1-act: constitutively active MST1 (aa 1-330) expressed from pcDNA3.1 Myc/His by transfection (protein, UniProt Q13043 1-330, looked up, fragment)
chain: METVQLRNPPRRQLKKLDEDSLTKQPEEVFDVLEKLGEGSYGSVYKAIHKETGQIVAIKQVPVESDLQEIIKEISIMQQCDSPHVVKYYGSYFKNTDLWIVMEYCGAGSVSDIIRLRNKTLTEDEIATILQSTLKGLEYLHFMRKIHRDIKAGNILLNTEGHAKLADFGVAGQLTDTMAKRNTVIGTPFWMAPEVIQEIGYNCVADIWSLGITAIEMAEGKPPYADIHPMRAIFMIPTNPPPTFRKPELWSDNFTDFVKQCLVKSPEQRATATQLLQHPFVRSAKGVSILRDLINEAMDVKLKRQESQQREVDQDDEENSEEDEMDSGTM
modifications: Myc/His tag
- myogenesis in wildtype myoblasts ([3]; 2 days in differentiation media, vs untransfected wildtype): comparable to wildtype cultures after 4-5 days of differentiation; also recorded: accelerated myogenesis after 2 days
- apoptosis on protracted differentiation ([3]; differentiation time course >4 days): enhanced apoptosis
- kinase activity of construct [4]: high level of kinase activity
- myotube formation in caspase-3-/- myoblasts [5]: elongated and fused with neighbouring cells to form multinucleated myotubes; also recorded: differentiated to form fused, multinucleated myotubes

- myotube formation in caspase-3-/- myoblasts [5]: remained as mono-nucleated myoblasts
B3: wild-type MST1: complete open reading frame of human MST1 in expression vector pcDNA3.1 Myc/His, transfected (protein)
chain: T1 chain

Continued, molecule first:

Molecule: CC[C@H](C)[C@H](NC(=O)OCc1ccccc1)C(=O)N[C@@H](CCC(=O)OC)C(=O)N[C@H](C(=O)N[C@@H](CC(=O)OC)C(=O)CF)[C@@H](C)O [z-IETD.fmk] (Cbz-IE(OMe)TD(OMe)-CH2F)
- neurite extensions / morphological changes [1]: did not affect morphological changes in neurosphere differentiation
- neurite extensions / morphological changes ([1]; listed as IETD): extensive neurite networking present

Molecule: COC(=O)C[C@H](NC(=O)[C@H](C)NC(=O)[C@@H](NC(=O)OCc1ccccc1)C(C)C)C(=O)CF [z-VAD.fmk] (Cbz-Val-Ala-Asp(OMe)-CH2F)
- neurite extensions / morphological changes [1]: gave results similar to caspase 3 inhibition

B2: caspase-3 (endogenous, in lysates or cultures of mouse C2C12 myoblasts and mouse CD1 neurospheres) (protein)
chain: SGIYLDSSYKMDYPEMGICIIINNKNFHKSTGMSSRSGTDVDAANLRETFMGLKYQVRNKNDLTREDILELMDSVSKEDHSKRSSFVCVILSHGDEGVIYGTNGPVELKKLTSFFRGDYCRSLTGKPKLFIIQACRGTELDCGIETDSGTDEEMACQKIPVEADFLYAYSTAPGYYSWRNSKDGSWFIQSLCSMLKLYAHKLEFMHILTRVNRKVATEFESFSLDSTFHAKKQIPCIVSMLTKELYFYH
- proteolytic cleavage of [35S]-methionine labelled MST1 by C2C12 lysates (SDS-PAGE, autoradiography) [6]: the lower 36 kDa MST1 fragment was not apparent in samples where caspase-3 activity was inhibited
- transfected cells undergoing differentiation ([7]; C2C12 in growth media, 20 µg protein, 12 h, myosin heavy chain immunodetection, n=4): > 95%
- morphologic features of apoptosis ([7]; transfected C2C12 expressing myosin heavy chain): did not display any morphologic features normally attributed to apoptosis

— US20060013804A1, “Modulation of stem cell differentiation by modulation of caspase-3 activity” (Ottawa Health Research Institute, priority 2002, published 2006)
